Numbering of substitutions follows the chain as printed. Names and notes keep the numbering of the source.
T1: L807
T1 chain: KEAPPSPPQSP

T2: pL807
T2 chain: KEAPPSPPQSP

B1: Bacterially expressed Purified GSK-3β Wild-Type (WT) (protein)
chain: MSGRPRTTSFAESCKPVQQPSAFGSMKVSRDKDGSKVTTVVATPGQGPDRPQEVSYTDTKVIGNGSFGVVYQAKLCDSGELVAIKKVLQDKRFKNRELQIMRKLDHCNIVRLRYFFYSSGEKKDEVYLNLVLDYVPETVYRVARHYSRAKQTLPVIYVKLYMYQLFRSLAYIHSFGICHRDIKPQNLLLDPDTAVLKLCDFGSAKQLVRGEPNVSYICSRYYRAPELIFGATDYTSSIDVWSAGCVLAELLLGQPIFPGDSGVDQLVEIIKVLGTPTREQIREMNPNYTEFKFPQIKAHPWTKDSSGTGHFTSGVRVFRPRTPPEAIALCSRLLEYTPTARLTPLEACAHSFFDELRDPNVKLPNGRDTPALFNFTTQELSSNPPLATILIPPHARIQAAASTPTNATAASDANTGDRGQTNNAASASASNST
B2: GSK-3β F93A mutant (in which Phe93 was replaced by alanine) (protein)
chain: B1 chain with F93A

Key:
L807 = molecular target: T1, L807
pL807 = molecular target: T2, pL807

Row | Protein | peptide phosphorylation by GSK-3β (in vitro kinase assay, 32P-γ-ATP) (L807) | peptide phosphorylation by WT GSK-3β (in vitro kinase assay) (L807) | peptide phosphorylation by GSK-3β (in vitro kinase assay, 32P-γ-ATP) (pL807) | peptide phosphorylation by the F93A mutant (in vitro kinase assay) (L807)
1 | B1 | shows that L807 is a substrate of GSK-3 | L807 is phosphorylated by both GSK-3 and F93A | pL807 is not a substrate of GSK-3 | 
2 | B2 |  |  |  | L807 is phosphorylated by both GSK-3 and F93A

From patent US20160200763
